In patent US20120316071A1 (published 2012):
One block for each binder: values may come before it.

How the values were obtained:
[1] = target: T1, rHuman Erythropoietin R/Fc Chimera, CF (R&D Systems Cat#963-ER) (human, UniProt P19235 25-250); test: MSD multispot ECL, antigen spotted, Fab 148.9 nM; blank spot 218
T1 construct: Bought reagent; also called EPO R/Fc; Epo R
T1 sequence (looked up): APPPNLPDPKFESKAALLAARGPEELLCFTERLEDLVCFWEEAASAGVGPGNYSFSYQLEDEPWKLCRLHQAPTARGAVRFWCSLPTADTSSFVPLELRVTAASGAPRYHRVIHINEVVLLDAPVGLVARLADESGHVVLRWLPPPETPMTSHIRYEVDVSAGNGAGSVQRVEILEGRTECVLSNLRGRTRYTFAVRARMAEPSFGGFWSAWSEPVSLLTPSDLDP

[2] = target: T2, rHuman ErbB2/Fc Chimera, CF (R&D Systems Cat#1129-ER) (human, UniProt P04626 23-652); test: as above
T2 construct: Bought reagent; also called human epidermal growth factor 2 receptor

[3] = target: T3, rHuman HGF R/c-MET/Fc Chimera, CF (R&D Systems Cat#358-MT/CF) (human, UniProt P08581 25-932); test: as above
T3 construct: Bought reagent; also called HGF R/Fc; hepatocyte growth factor receptor

[4] = target: T4, Recombinant Human DLL4 (R&D Systems Cat#1506-D4/CF) (human, UniProt Q9NR61 27-524); test: as above
T4 construct: Bought recombinant protein; also called rHuman DLL4; delta-like protein 4

[5] = target: T5, rHuman Notch-1/Fc Chimera, CF (R&D Systems Cat#3647-TK) (human, UniProt P46531 19-526); test: as above
T5 construct: Bought reagent

[6] = target: T6, rHuman EGF R/Fc Chimera, CF (R&D Systems Cat#344-ER) (human, UniProt P00533 25-645); test: as above
T6 construct: Bought reagent; also called epidermal growth factor receptor

[7] = target: T7, rHuman CD44/Fc Chimera, CF (R&D Systems Cat#3660-CD) (human, UniProt P16070 21-220); test: as above
T7 construct: Bought reagent

[8] = target: T8, rHuman IGF-1 sR, (IGF-1 sR), CF (R&D Systems Cat#391-GR) (human, UniProt P08069 31-932); test: as above
T8 construct: Bought soluble receptor; also called insulin-like growth factor-1 soluble receptor

[9] = target: T9, rHuman CD44/Fc Chimera, CF (R&D Systems Cat#3660-CD) (human, UniProt P16070 21-220); test: ECL Multispot (MSD), antigen spotted; Fab 5 (µM); blank 211
T9 construct: Bought recombinant protein; Fc part of the bought chimera not given

[10] = target: T10, rHuman EGF R/Fc Chimera, CF (R&D Systems Cat#344-ER) (human, UniProt P00533 25-645); test: as above
T10 construct: Bought recombinant protein; Fc part of the bought chimera not given

[11] = target: T11, Recombinant Human DLL4 (R&D Systems Cat#1506-D4/CF) (human, UniProt Q9NR61 27-529); test: as above
T11 construct: Bought recombinant protein; also called delta-like protein 4; rHuman DLL4

[12] = target: T12, rHuman ErbB2/Fc Chimera, CF (R&D Systems Cat#1129-ER) (human, UniProt P04626 23-652); test: as above
T12 construct: Bought recombinant protein; Fc part of the bought chimera not given

[13] = target: T13, Recombinant Human DLL4 (R&D Systems Cat#1506-D4/CF) (human, UniProt Q9NR61 27-524); test: MSD multispot ECL, antigen spotted on plate; Fab 0.00797 uM; blank spot 364
T13 construct: Bought recombinant protein; also called delta-like protein 4; rHuman DLL4

[14] = target: T14, rHuman CD44/Fc Chimera, CF (R&D Systems Cat#3660-CD) (human, UniProt P16070 21-220); test: as above
T14 construct: Bought recombinant protein; Fc part of the bought chimera not given

[15] = target: T15, rHuman EGF R/Fc Chimera, CF (R&D Systems Cat#344-ER) (human, UniProt P00533 25-645); test: as above
T15 construct: Bought recombinant protein; also called epidermal growth factor receptor; Fc part of the bought chimera not given

[16] = target: T16, rHuman Erythropoietin R/Fc Chimera, CF (R&D Systems Cat#963-ER) (human, UniProt P19235 25-250); test: as above
T16 construct: Bought recombinant protein; also called EPO R/Fc; Epo R; Fc part of the bought chimera not given
T16 sequence (looked up): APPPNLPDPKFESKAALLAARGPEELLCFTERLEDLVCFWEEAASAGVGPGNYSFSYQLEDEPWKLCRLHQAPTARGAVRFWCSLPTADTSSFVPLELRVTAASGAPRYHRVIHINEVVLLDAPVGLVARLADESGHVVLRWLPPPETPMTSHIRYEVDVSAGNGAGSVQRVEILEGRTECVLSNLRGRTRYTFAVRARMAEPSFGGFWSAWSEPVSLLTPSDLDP

[17] = target: T17, rHuman Notch-1/Fc Chimera, CF (R&D Systems Cat#3647-TK) (human, UniProt P46531 19-526); test: as above
T17 construct: Bought recombinant protein; Fc part of the bought chimera not given

[18] = target: T18, rHuman P-Cadherin/Fc Chimera, CF (R&D Systems Cat#861-PC) (human, UniProt P22223 108-654); test: as above
T18 construct: Bought recombinant protein; Fc part of the bought chimera not given

[19] = target: T19, rHuman IGF-1 sR, CF (R&D Systems Cat#391-GR) (human, UniProt P08069 31-932); test: as above
T19 construct: Bought recombinant soluble receptor; also called insulin-like growth factor-1 soluble receptor

[20] = target: T20, rHuman ErbB2/Fc Chimera, CF (R&D Systems Cat#1129-ER) (human, UniProt P04626 23-652); test: as above
T20 construct: Bought recombinant protein; also called human epidermal growth factor 2 receptor; Fc part of the bought chimera not given

T3 sequence (P08581 25-932, change not shown): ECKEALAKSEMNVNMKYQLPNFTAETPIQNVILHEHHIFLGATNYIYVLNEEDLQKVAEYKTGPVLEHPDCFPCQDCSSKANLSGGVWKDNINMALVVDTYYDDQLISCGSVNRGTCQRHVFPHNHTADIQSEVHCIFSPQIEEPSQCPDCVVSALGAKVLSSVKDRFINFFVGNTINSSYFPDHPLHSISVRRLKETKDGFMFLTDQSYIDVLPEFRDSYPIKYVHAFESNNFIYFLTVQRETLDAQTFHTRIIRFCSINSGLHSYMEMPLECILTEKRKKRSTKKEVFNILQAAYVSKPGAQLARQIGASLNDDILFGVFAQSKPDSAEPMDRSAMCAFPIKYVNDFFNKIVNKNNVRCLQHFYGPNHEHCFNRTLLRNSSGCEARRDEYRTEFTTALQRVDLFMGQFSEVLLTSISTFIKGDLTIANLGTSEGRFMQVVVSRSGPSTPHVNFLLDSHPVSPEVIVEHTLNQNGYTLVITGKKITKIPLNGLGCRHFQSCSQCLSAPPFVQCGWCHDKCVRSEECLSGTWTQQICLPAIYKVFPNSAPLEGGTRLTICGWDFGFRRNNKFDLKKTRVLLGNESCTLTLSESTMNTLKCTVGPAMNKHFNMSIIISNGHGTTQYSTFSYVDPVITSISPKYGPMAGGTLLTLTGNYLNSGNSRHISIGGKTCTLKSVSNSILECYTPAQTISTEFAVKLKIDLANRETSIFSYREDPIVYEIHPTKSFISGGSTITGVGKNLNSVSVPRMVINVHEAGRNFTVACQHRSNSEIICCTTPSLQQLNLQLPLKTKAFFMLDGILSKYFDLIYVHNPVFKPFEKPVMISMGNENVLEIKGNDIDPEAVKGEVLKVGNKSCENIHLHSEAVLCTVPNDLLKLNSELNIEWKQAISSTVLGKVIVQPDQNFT

ECL signal [1]: 373 ECL signal
ECL signal [2]: 247 ECL signal
ECL signal [3]: 205 ECL signal
ECL signal [4]: 16300 ECL signal
ECL signal [5]: 375 ECL signal
ECL signal [6]: 290 ECL signal
ECL signal [7]: 348 ECL signal
ECL signal [8]: 322 ECL signal
B1: Fab VH1-46_IGHD6-6*01_IGHJ1*01 & L6_IGKJ1*01 (Fab, V domains shown)
VH: QVQLVQSGAEVKKPGASVKVSCKASGYTFTSYYMHWVRQAPGQGLEWMGIINPSGGSTSYAQKFQGRVTMTRDTSTSTVYMELSSLRSEDTAVYYCAREEYSSSSAEYFQHWGQGTLVTVSS
VL: not shown
notes: Only variable domains are tied to the molecule; Tested as a Fab made in E. coli: heavy chain from Plasmid A (CH1 constant region, His6 and Flag tags), kappa light chain from Plasmid C (kappa CL); also called parent Hit Fab against DLL4; VH1-46_IGHD6-6*01_IGHJ1*01 & L6_IGKJ1*01 (parental)

ECL signal [9]: 343
ECL signal [10]: 356
ECL signal [11]: 54900
ECL signal [12]: 401
B2: Fab VH1-46_IGHD6-6*01_IGHJ1*01 S102A/S103P/S104F (APF) & L6_IGKJ1*01 (Fab, V domains shown)
VH: QVQLVQSGAEVKKPGASVKVSCKASGYTFTSYYMHWVRQAPGQGLEWMGIINPSGGSTSYAQKFQGRVTMTRDTSTSTVYMELSSLRSEDTAVYYCAREEYAPFSAEYFQHWGQGTLVTVSS
VL: not shown
notes: Tested as a Fab made in E. coli: VH cloned in Plasmid A (CH1 constant region, His6 and Flag tags), VL in Plasmid C (kappa constant region); also called H:APF & L:wt; APF triple mutant

ECL signal [13]: 872
ECL signal [14]: 490
ECL signal [15]: 530
ECL signal [16]: 566
ECL signal [17]: 654
ECL signal [18]: 502
ECL signal [19]: 564
ECL signal [20]: 493
B3: Fab VH4-34_IGHD7-27*01_IGHJ4*01 & L5_IGKJ1*01 (Fab, V domains shown)
VH: QVQLQQWGAGLLKPSETLSLTCAVYGGSFSGYYWSWIRQPPGKGLEWIGEINHSGSTNYNPSLKSRVTISVDTSKNQFSLKLSSVTAADTAVYYCARANWGDYFDYWGQGTLVTVSS
VL: DIQMTQSPSSVSASVGDRVTITCRASQGISSWLAWYQQKPGKAPKLLIYAASSLQSGVPSRFSGSGSGTDFTLTISSLQPEDFATYYCQQANSFPPWTFGQGTKVEIKR
notes: Germline library Fab expressed in E. coli; VH was cloned into Plasmid A, which adds CH1 with His6 and Flag tags
